Source: article PMC314469, “Protein Interaction Networks by Proteome Peptide Scanning” (PLoS Biology, 2004)

T1: Abp1 SH3 (ABP1_YEAST), P15891
T1 chain: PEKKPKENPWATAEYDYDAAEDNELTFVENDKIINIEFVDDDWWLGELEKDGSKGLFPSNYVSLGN


Molecular target: T1, Abp1 SH3 (ABP1_YEAST), P15891
Experiment: SPOT array

| Binder | normalised SPOT signal, Boehringer light units (BLU); mean over the file's lines of this peptide |
| --- | --- |
| PNSDRLQLLEPFKP [YJL200C 564-577] | 98.6 |
| PPLIGSGPGSHKP [YLR176C 127-139] | 192 |
| PPLTKEGPTSKKP [YCR094W 11-23] | 200 |
| PPPPPPPPPSSKP [YMR109W 1073-1085] | 117 |
| PPPQQAQSLQPLKP [YIR006C 205-218] | 188 |
| PQLHDYLPTLERP [YCR034W 17-29] | 0 |
| PQNRVQAPTAYKP [YBL013W 258-270] | 287 |
| PQQLQQQPNGQRP [YPL204W 411-423] | 128 |
| PQYDEIHIPAPSKP [YER172C 458-471] | 36.2 |
| PRDTIIGHGLPYKP [YLR224W 322-335] | 46.8 |
| PRETAAGPANIRP [YOL019W 423-435] | -0 |
| PRGAPGMPEMLKP [YJR016C 466-478] | 146 |
| PRIPRLVPQWEKP [YLR174W 115-127] | 698 |
| PRIPRLVPRWEKP [YDL066W 131-143] | 3910 |
| PRMGHVFPLETRP [YPR118W 222-234] | 4090 |
| PRQVAVDPKTGKP [YKR001C 550-562] | 32.3 |
| PRTYSKTYSTPKRP [YBR189W 5-18] | 88.1 |
| PSNDRSAPKNIKP [YNL139C 1426-1438] | 86.5 |
| PSVVSSSESQPSKP [YML109W 615-628] | 23.6 |
| PTAVFLRLISPTRP [YOR249C 37-50] | 37.3 |
| PTDIQLKNLFPLKP [YPL243W 519-532] | 128 |

| Binder | normalised SPOT signal, Boehringer light units (BLU); mean over the file's lines of this peptide |
| --- | --- |
| PTLEDHTPPEDKP [YHR001W-A 64-76] | 81 |
| PTSDRLQLLKPFKP [YLR304C 557-570] | 920 |
| PTTLKRPPLSSRP [YDR389W 56-68] | 6140 |
| PTTSIGFPALEKP [YLL022C 355-367] | 49.2 |
| PVFMAIKQHSPDKP [YGR271W 1358-1371] | 790 |
| PVFVTDYPRLSKP [YCR024C 376-388] | 93.5 |
| PVIMWVPSMYPVKP [YCL008C 82-95] | 94.4 |
| PVPELDIKQGPVRP [YDL095W 15-28] | 183 |
| PVSSRKAVEPPRKP [YDR464W 340-353] | 479 |
| PVTMRVHPKNGKP [YLR304C 734-746] | 1700 |
| PYNYLQRPFIVKP [YML113W 199-211] | 206 |
| PYTAKGAPIISKP [YOL061W 103-115] | 127 |
| QAHVQTNPQVPKP [YPR129W 112-124] | 0 |
| QAPSMGIPQQNRP [YOR181W 300-312] | 117 |
| QDFKSPLENDPNRP [YPL188W 113-126] | 41.4 |
| QDKRNLRSNAPTKP [YLR263W 598-611] | 67.5 |
| QDYGSISPSNIRP [YER132C 1035-1047] | 0 |
| QEAVNSSPSEFRP [YOR299W 396-408] | 165 |
| QEDPISNFLPPPKP [YBR108W 580-593] | 114 |
| QEENKLEESVPTKP [YIL072W 279-292] | 88 |
| QEQQNKAPEKPKP [YGL105W 194-206] | 46.6 |
